Consider two substances from article PMC5915575.

Holding throughout (details): EMSA: 10 mM Tris-HCl pH 7.5, 1 mM EDTA, 50 mM NaCl, 5% glycerol, 30 min room temperature, 10 pmol DNA, 0-18 ug protein, 5% native PAGE at 4 °C; BLI: PBS pH …
For orientation: Mobility shift assays separate free from complexed probe on a gel.

Series [1] relates to T1, SigB(Q225P) Q224P (Staphylococcus aureus (strain of the cloned gene not stated; XQW or Newman-SigB(Q225P)?)), ORF:92324cdd.
T1 sequence: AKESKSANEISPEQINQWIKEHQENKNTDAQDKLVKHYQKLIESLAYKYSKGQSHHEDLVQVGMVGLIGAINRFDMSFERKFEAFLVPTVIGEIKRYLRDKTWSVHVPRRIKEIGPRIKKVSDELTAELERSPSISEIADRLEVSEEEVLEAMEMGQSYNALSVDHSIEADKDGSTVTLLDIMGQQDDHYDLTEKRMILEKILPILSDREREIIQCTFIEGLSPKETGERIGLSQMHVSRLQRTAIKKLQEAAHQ
The series can be described thus: EMSA.

For series [2], the system named is T2, SigB (Staphylococcus aureus (strain of the cloned gene not stated; Newman or XQ?)), ORF:92324cdd.
T2 sequence: T1 sequence with P224Q
The series can be described thus: EMSA.

Series [3] deals with SigB (Staphylococcus aureus (strain of the cloned gene not stated; Newman or XQ?)). The series can be described thus: BLI.
For series [4], the system named is SigB(Q225P) (Staphylococcus aureus (strain of the cloned gene not stated; XQW or Newman-SigB(Q225P)?)). The series can be described thus: BLI. For orientation: Biolayer interferometry detects binding as a change in optical thickness at a sensor tip.

Where a chain is given by its changes, count along the chain named.

Consider “ACGCATAGGGACTTCGTGACCATTTACAGTCACAACTTTACTTAAGTTAATAAGTGTTAATTCATCAAACGACAGTTGTTCAACTGGTTGATGATGGTATTTCTTCATTCTTGTAAGTAAATTATTAATACGTAAAACGAGTTCCCTTGGACTAAATGGTTTTTTGACATAGTCATCTGCACCTAAAGTTAAGGCG (double strand) [saeR coding region fragment]”, for which the binding entry in series [1] and in series [2] was “no binding” in each case.
For the substance biotin-labeled nuc promoter (BLI), the Kd (in general, the concentration at which binding is half-saturated) in series [3] was found to be 113 nM; in series [4], 273 nM.
